For 31 molecules, Kd results are on record in patent US20240343771A1 (Chugai, published 2024).

Sequences and labels used below:
B1: Anti-IL-12 antibody Ab1 variant V37S VH/P44A, Y49A VL (antibody, name in Kabat numbering, V domains shown)
VH: QVQLVQSGAEVKKPGSSVKVSCKASGGTFSDYYLHWSRQAPGQGLEWMGWIDPENGDTEYAPKFQGRVTITADESTSTAYMELSSLRSEDTAVYYCARNKELRYFDVWGQGTLVTVSS
VL: DIVMTQSPLSLPVTPGEPASISCRASQSISINLHWYQQKPGQAARLLIAFASQSISGVPSRFSGSGSGTDFTLTISSLQPEDFATYYCQQSNSFPLTFGQGTKVEIKR
notes: Ab1 with VH/VL interface substitutions; Kabat numbering
B2: Anti-IL-12 antibody Ab1 variant V37S, Y91M VH/L46Q, Y49A VL (antibody, name in Kabat numbering, V domains shown)
VH: B1 VH with Y95M
VL: B1 VL with A44P, L46Q
notes: as for B1
B3: Anti-IL-12 antibody Ab1 variant W103M VH/P44A, Y49A VL (antibody, name in Kabat numbering)
heavy: not shown
light: DIVMTQSPLSLPVTPGEPASISCRASQSISINLHWYQQKPGQAARLLIAFASQSISGVPSRFSGSGSGTDFTLTISSLQPEDFATYYCQQSNSFPLTFGQGTKVEIKRTVAAPSVFIFPPSDEQLKSGTASVVCLLNNFYPREAKVQWKVDNALQSGNSQESVTEQDSKDSTYSLSSTLTLSKADYEKHKVYACEVTHQGLSSPVTKSFNRGEC
notes: as for B1
B4: Anti-IL-12 antibody Ab1 variant V37S VH/Y49A, F98L VL (antibody, name in Kabat numbering, V domains shown)
VH: B1 VH
VL: B1 VL with A44P, F98L
notes: as for B1
B5: Anti-IL-12 antibody Ab1 variant W103L VH/A43Q, Y49A VL (antibody, name in Kabat numbering)
heavy: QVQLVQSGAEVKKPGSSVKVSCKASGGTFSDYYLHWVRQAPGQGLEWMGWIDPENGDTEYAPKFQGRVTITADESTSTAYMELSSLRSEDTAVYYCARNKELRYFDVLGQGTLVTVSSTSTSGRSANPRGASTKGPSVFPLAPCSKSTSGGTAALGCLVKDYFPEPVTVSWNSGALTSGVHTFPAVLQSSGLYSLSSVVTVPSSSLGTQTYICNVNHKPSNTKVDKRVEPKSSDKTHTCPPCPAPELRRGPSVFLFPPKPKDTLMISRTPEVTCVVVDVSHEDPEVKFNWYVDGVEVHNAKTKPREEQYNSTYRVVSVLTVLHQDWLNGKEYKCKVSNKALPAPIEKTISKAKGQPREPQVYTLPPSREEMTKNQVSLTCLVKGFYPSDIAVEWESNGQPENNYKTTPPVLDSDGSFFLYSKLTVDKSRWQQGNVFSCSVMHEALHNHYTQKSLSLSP
light: B3 light with A43Q, A44P
notes: as for B1
B6: Anti-IL-12 antibody Ab1 variant Y91A VH/P44A, Y49A VL (antibody, name in Kabat numbering, V domains shown)
VH: B1 VH with S37V, Y95A
VL: B1 VL
notes: as for B1
B7: Anti-IL-12 antibody Ab1 variant Y91L VH/- (antibody, name in Kabat numbering, V domains shown)
VH: B1 VH with S37V, Y95L
VL: B1 VL with A44P, A49Y
notes: as for B1
B8: Anti-IL-12 antibody Ab1 variant W103M VH/L46Q, Y49A VL (antibody, name in Kabat numbering)
heavy: not shown
light: B3 light with A44P, L46Q
notes: as for B1
B9: Anti-IL-12 antibody Ab1 variant W103I VH/P44A, Y49A VL (antibody, name in Kabat numbering)
heavy: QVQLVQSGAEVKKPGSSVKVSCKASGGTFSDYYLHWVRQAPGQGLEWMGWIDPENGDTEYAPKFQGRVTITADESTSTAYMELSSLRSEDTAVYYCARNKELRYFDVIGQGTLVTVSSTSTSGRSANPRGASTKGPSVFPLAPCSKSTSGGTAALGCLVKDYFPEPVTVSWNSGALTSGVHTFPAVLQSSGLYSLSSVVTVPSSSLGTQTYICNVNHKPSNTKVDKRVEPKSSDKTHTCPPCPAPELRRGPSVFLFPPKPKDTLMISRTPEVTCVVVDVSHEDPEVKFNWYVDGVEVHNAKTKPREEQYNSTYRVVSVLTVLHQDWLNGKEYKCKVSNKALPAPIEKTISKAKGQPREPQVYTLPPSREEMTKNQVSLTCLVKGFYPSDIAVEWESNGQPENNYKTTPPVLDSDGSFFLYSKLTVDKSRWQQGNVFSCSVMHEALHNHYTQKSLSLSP
light: B3 light
notes: as for B1
B10: Anti-IL-12 antibody Ab1 variant W103A VH/- (antibody, name in Kabat numbering)
heavy: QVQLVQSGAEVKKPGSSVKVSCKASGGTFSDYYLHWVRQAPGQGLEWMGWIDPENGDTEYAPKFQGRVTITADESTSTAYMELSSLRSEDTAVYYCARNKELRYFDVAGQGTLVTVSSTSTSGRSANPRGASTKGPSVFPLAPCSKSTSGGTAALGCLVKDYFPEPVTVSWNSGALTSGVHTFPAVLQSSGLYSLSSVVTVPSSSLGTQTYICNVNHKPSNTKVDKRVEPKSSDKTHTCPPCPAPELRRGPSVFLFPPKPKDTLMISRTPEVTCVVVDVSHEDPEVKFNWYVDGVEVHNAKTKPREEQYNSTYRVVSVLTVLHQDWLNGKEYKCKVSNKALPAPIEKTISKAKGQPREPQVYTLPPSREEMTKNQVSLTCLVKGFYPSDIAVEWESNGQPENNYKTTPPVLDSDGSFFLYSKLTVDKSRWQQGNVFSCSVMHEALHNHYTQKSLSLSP
light: B3 light with A44P, A49Y
notes: as for B1
B11: Anti-IL-12 antibody Ab1 variant V37S, L45Q VH/Y49A, Y87M VL (antibody, name in Kabat numbering, V domains shown)
VH: B1 VH with L45Q
VL: B1 VL with A44P, Y87M
notes: as for B1
B12: Anti-IL-12 antibody Ab1 variant Y91A VH/A43Q, Y49A VL (antibody, name in Kabat numbering, V domains shown)
VH: B1 VH with S37V, Y95A
VL: B1 VL with A43Q, A44P
notes: as for B1
B13: Anti-IL-12 antibody Ab1 variant V37S, F100aI VH/L46Q, Y49A VL (antibody, name in Kabat numbering, V domains shown)
VH: B1 VH with F105I
VL: B1 VL with A44P, L46Q
notes: as for B1
B14: Anti-IL-12 antibody Ab1 variant V37S, W103M VH/A43Q, Y49A VL (antibody, name in Kabat numbering)
heavy: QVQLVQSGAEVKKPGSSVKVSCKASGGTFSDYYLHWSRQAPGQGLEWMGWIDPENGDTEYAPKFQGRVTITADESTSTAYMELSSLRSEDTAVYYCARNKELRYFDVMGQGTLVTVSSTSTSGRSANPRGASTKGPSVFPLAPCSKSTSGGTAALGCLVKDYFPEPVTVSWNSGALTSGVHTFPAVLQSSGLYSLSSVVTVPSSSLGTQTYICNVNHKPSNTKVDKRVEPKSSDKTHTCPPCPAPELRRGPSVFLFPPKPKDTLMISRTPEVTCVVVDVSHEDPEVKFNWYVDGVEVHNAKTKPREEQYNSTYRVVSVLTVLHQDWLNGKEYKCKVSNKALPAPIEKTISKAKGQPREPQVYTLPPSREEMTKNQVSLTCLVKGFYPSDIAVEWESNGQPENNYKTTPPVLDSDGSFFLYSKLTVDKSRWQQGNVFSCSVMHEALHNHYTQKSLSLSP
light: B3 light with A43Q, A44P
notes: as for B1
B15: Anti-IL-12 antibody Ab1 variant W103I VH/L46Q, Y49A VL (antibody, name in Kabat numbering)
heavy: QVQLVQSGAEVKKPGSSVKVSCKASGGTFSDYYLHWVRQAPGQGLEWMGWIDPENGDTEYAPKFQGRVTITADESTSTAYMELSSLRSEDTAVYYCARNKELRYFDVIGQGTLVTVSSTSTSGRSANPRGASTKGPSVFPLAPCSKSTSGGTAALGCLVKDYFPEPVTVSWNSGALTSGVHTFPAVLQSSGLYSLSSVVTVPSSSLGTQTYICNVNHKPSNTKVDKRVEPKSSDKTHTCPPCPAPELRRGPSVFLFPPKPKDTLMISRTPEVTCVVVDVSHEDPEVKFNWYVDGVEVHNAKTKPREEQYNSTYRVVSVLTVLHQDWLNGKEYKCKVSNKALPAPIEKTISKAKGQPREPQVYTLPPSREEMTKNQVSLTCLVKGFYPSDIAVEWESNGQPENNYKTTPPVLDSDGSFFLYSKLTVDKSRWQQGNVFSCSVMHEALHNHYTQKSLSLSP
light: B3 light with A44P, L46Q
notes: as for B1
B16: Anti-IL-12 antibody Ab1 variant W103M VH/A43Q, Y49A VL (antibody, name in Kabat numbering)
heavy: not shown
light: B3 light with A43Q, A44P
notes: as for B1
B17: Anti-IL-12 antibody Ab1 variant Y91M VH/- (antibody, name in Kabat numbering, V domains shown)
VH: B1 VH with S37V, Y95M
VL: B1 VL with A44P, A49Y
notes: as for B1
B18: Anti-IL-12 antibody Ab1 variant W103M VH/- (antibody, name in Kabat numbering)
heavy: not shown
light: B3 light with A44P, A49Y
notes: as for B1
B19: Anti-IL-12 antibody Ab1 variant V37S, L45Q VH/A43Q, Y49A VL (antibody, name in Kabat numbering, V domains shown)
VH: B1 VH with L45Q
VL: B1 VL with A43Q, A44P
notes: as for B1
B20: Anti-IL-12 antibody Ab1 variant W103L VH/P44A, Y49A VL (antibody, name in Kabat numbering)
heavy: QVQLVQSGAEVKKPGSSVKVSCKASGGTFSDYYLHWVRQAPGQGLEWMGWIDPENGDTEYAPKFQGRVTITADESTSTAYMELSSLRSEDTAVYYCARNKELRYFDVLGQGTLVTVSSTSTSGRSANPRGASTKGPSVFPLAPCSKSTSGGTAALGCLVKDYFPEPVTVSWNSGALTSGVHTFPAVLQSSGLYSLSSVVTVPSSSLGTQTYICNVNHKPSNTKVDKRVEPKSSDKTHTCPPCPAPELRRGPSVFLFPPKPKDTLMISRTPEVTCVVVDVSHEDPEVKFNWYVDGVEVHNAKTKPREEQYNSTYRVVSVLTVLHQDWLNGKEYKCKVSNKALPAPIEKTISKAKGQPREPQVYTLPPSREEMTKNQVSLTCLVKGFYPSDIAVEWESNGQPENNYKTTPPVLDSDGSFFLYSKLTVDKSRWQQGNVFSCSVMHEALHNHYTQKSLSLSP
light: B3 light
notes: as for B1
B21: Anti-IL-12 antibody Ab1 variant W103L VH/L46Q, Y49A VL (antibody, name in Kabat numbering)
heavy: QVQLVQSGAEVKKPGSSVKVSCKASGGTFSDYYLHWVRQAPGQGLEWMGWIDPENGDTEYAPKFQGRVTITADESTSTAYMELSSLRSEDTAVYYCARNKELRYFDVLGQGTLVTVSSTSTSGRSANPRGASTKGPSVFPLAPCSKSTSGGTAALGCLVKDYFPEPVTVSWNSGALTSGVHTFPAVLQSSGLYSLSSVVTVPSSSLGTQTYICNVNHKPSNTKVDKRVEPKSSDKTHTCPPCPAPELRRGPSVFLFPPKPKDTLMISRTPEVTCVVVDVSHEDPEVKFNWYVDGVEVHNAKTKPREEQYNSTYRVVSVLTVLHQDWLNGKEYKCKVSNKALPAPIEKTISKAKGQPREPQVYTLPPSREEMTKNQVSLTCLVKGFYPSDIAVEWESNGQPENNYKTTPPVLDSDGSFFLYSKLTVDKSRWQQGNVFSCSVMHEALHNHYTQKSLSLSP
light: B3 light with A44P, L46Q
notes: as for B1
B22: Anti-IL-12 antibody Ab1 variant W103M VH/Y49A, Y87L VL (antibody, name in Kabat numbering)
heavy: not shown
light: B3 light with A44P, Y87L
notes: as for B1
B23: Anti-IL-12 antibody Ab1 variant W103L VH/Y49A, Y87L VL (antibody, name in Kabat numbering)
heavy: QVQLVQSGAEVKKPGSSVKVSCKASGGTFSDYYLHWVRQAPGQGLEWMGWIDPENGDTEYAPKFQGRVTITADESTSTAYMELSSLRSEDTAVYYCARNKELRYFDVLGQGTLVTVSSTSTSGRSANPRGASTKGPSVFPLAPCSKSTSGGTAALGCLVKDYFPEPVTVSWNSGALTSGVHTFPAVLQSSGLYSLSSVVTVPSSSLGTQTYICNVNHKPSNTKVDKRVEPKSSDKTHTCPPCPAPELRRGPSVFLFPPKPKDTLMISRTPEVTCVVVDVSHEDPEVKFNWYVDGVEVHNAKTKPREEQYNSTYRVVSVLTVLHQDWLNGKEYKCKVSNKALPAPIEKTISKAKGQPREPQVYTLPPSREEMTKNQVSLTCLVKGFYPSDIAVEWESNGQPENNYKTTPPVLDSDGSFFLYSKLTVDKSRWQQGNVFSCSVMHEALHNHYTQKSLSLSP
light: B3 light with A44P, Y87L
notes: as for B1
B24: Anti-IL-12 antibody Ab1 variant Y91A VH/- (antibody, name in Kabat numbering, V domains shown)
VH: B1 VH with S37V, Y95A
VL: B1 VL with A44P, A49Y
notes: as for B1
B25: Anti-IL-12 antibody Ab1 variant W103I VH/A43Q, Y49A VL (antibody, name in Kabat numbering)
heavy: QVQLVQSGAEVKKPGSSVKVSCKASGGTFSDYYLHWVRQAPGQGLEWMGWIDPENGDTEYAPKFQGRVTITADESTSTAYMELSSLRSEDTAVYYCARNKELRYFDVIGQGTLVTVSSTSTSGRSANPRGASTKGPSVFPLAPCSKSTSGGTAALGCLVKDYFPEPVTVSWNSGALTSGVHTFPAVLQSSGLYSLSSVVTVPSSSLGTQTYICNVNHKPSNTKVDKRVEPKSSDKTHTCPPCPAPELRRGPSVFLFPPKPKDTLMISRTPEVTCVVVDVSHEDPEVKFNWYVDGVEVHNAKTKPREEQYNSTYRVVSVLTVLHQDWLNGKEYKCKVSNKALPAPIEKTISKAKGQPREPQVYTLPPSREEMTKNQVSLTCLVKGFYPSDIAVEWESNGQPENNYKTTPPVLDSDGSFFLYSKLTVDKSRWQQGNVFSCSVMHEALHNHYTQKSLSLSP
light: B3 light with A43Q, A44P
notes: as for B1
B26: Anti-IL-12 antibody Ab1 variant Y91A VH/L46Q, Y49A VL (antibody, name in Kabat numbering, V domains shown)
VH: B1 VH with S37V, Y95A
VL: B1 VL with A44P, L46Q
notes: as for B1
B27: Anti-IL-12 antibody Ab1 variant V37S, F100aI VH/A43Q, Y49A VL (antibody, name in Kabat numbering, V domains shown)
VH: B1 VH with F105I
VL: B1 VL with A43Q, A44P
notes: as for B1
B28: Anti-IL-12 antibody Ab1 variant V37S, Y91M VH/A43Q, Y49A VL (antibody, name in Kabat numbering, V domains shown)
VH: B1 VH with Y95M
VL: B1 VL with A43Q, A44P
notes: as for B1
B29: Anti-IL-12 antibody Ab1 variant V37S VH/Y49A, Y87L VL (antibody, name in Kabat numbering, V domains shown)
VH: B1 VH
VL: B1 VL with A44P, Y87L
notes: as for B1
B30: Anti-IL-12 antibody Ab1 variant W103L VH/- (antibody, name in Kabat numbering)
heavy: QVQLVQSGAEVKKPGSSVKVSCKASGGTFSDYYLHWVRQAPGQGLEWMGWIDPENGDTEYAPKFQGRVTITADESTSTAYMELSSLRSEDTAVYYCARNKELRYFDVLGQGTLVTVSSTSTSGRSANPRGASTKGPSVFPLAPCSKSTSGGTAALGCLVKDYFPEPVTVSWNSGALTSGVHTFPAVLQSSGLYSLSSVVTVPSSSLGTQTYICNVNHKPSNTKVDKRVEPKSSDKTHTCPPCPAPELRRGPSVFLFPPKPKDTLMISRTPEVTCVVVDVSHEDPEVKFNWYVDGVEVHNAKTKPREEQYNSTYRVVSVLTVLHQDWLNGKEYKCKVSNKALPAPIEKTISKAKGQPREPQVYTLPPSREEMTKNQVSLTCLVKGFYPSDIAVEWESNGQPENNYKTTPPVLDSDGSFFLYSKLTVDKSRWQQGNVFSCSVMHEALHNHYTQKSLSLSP
light: B3 light with A44P, A49Y
notes: as for B1
B31: Anti-IL-12 antibody Ab1 variant Y91A VH/Y49A, Y87L VL (antibody, name in Kabat numbering, V domains shown)
VH: B1 VH with S37V, Y95A
VL: B1 VL with A44P, Y87L
notes: as for B1

Numbering of substitutions follows the chain as printed. In names and notes the source's numbering stands.

The target of the test is T1, human IL-12 (human, UniProt P29460 23-328; P29459 23-219).
T1 construct: also called Interleukin-12
T1 sequence 1: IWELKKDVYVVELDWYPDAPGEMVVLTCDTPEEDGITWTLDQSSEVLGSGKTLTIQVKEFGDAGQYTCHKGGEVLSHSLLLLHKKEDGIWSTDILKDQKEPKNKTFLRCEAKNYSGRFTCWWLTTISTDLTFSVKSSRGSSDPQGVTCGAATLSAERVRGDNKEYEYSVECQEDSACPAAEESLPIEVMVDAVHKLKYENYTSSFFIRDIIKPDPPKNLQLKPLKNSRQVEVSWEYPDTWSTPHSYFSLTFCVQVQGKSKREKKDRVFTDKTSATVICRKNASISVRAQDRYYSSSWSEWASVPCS
T1 sequence 2: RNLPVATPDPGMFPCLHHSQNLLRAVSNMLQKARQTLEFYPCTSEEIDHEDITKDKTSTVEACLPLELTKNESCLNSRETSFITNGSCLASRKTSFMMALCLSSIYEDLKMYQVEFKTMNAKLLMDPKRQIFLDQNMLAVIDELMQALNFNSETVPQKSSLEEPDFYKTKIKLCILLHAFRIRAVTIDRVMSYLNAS
As to the kind of experiment: SPR (Biacore T200), 37 C, pH 7.4; captured antibody, IL-12 analyte. Here is the method: The affinity of anti-IL-12 antibodies binding to human IL-12 at pH 7.4 were determined at 37 degrees C. using Biacore T200 instrument (Cytiva). Anti-human Fc antibody (Cytiva) was immobilized onto all flow cells (FCs) of a CM4 sensor chip using amine coupling kit (Cytiva). All antibodies and analytes were prepared in ACES pH 7.4 containing 20 mM ACES, 150 mM NaCl, 0.05% Tween 20, 0.005% NaN₃. Each antibody was captured onto the sensor surface by anti-human Fc antibody. Antibody capture levels were aimed at 50 response unit (RU). 5 nM of human IL-12 were injected as analyte, followed by dissociation. Sensor surface was regenerated each cycle with 3M MgCl₂. […] Based on the results in Table 9, it is observed that binding kinetics of anti-IL-12 antibody AbI variants towards IL-12 were not drastically changed compared to control (−/−).
A general note: Surface plasmon resonance follows binding to a sensor surface in real time, without labels.
Broadly, the Kd is the free concentration of one partner at which half of the binding sites on the other are occupied at equilibrium, for simple one-to-one binding. Lower therefore signals tighter binding. Molecule B1 returned a Kd of 2.96 nM.
The molecule B2 showed a Kd of 3.44 nM. This Kd and that of the molecule before are within 1.5-fold of each other.
For B3 the value was 1.07 nM.
The figure for B4 is 0.982 nM; for B5 it is 1.12 nM.
With B6, the Kd is 2.32 nM.
For B7 the value was 1.21 nM; for B8, 3.52 nM.
For B9 the value was 1.57 nM.
Molecule B10 showed a Kd of 0.331 nM.
As to B11, the dissociation constant (Kd) is 2.92 nM.
The figure for B12 is 1.91 nM.
Regarding B13, the Kd came to 2.98 nM.
The molecule B14 returned a Kd of 0.828 nM.
For B15 the value was 4.86 nM.
For B16 the value was 1.45 nM; for B17, 0.827 nM.
The figure for B18 is 0.631 nM; for B19 it is 3.13 nM; for B20 it is 1.34 nM.
The molecule B21 had an equilibrium dissociation constant (Kd) of 3.86 nM.
B22: binding was put at a Kd of 1.79 nM.
The figure for B23 is 1.51 nM; for B24 it is 0.948 nM.
For B25 the value was 1.6 nM; for B26, 3.97 nM; for B27, 1.12 nM.
B28 displayed a Kd of 1.79 nM.
As for B29, the dissociation constant (Kd) is 3.04 nM.
For B30 the value was 0.549 nM.
As to B31, the Kd was determined as 2.82 nM.
